Reference: publication doi:10.1101/2020.02.01.930206 (bioRxiv, 2020)
Blank lines part the entries; values can stand above or below the binder they belong to.

B4: full-length mouse DNA2 (enzyme)
chain: MEPLDELDLLLLEEDGGAEAVPRVELLRKKADALFPETVLSRGVDNRYLVLAVETSQNERGAEEKRLHVTASQDREHEVLCILRNGWSSVPVEPGDIVHLEGDCTSEPWIIDDDFGYFILYPDMMISGTSVASSIRCLRRAVLSETFRGSDPATRQMLIGTILHEVFQKAISESFAPERLQELALQTLREVRHLKEMYRLNLSQDEILCEVEEYLPSFSKWAEDFMRKGPSSEFPQMQLSLPSDGSNRSSPCNIEVVKSLDIEESIWSPRFGLKGKIDVTVGVKIHRDCKMKYKVMPLELKTGKESNSIEHRSQVVLYTLLSQERREDPEAGWLLYLKTGQMYPVPANHLDKRELLKLRNWLAASLLHRVSRAAPGEEARLSALPQIIEEEKTCKYCSQIGNCALYSRAVEEQGDDASIPEAMLSKIQEETRHLQLAHLKYFSLWCLMLTLESQSKDNRKTHQSIWLTPASELEESGNCVGNLVRTEPVSRVCDGQYLHNFQRKNGPMPATNLMAGDRIILSGEERKLFALSKGYVKKMNKAAVTCLLDRNLSTLPATTVFRLDREERHGDISTPLGNLSKLMESTDPSKRLRELIIDFREPQFIAYLSSVLPHDAKDTVANILKGLNKPQRQAMKRVLLSKDYTLIVGMPGTGKTTTICALVRILSACGFSVLLTSYTHSAVDNILLKLAKFKVGFLRLGQSHKVHPDIQKFTEEEICRSRSIASLAHLEELYNSHPIVATTCMGINHPIFSRKTFDFCIVDEASQISQPVCLGPLFFSRRFVLVGDHQQLPPLVVNREARALGMSESLFKRLERNESAVVQLTVQYRMNRKIMSLSNKLTYAGKLECGSDRVANAVLALPNLKDARLSLQLYADYSDSPWLAGVLEPDNPVCFLNTDKVPAPEQVENGGVSNVTEARLIVFLTSTFIKAGCSPSDIGVIAPYRQQLRIISDLLARSSVGMVEVNTVDKYQGRDKSLILVSFVRSNEDGTLGELLKDWRRLNVALTRAKHKLILLGSVSSLKRFPPLGTLFDHLNAEQLILDLPSREHESLSHILGDCQRD

Assays:
[1] = molecular target: T1, Drosophila melanogaster CIAO2B (Drosophila melanogaster, UniProt Q9VTC4 1-156); assay: crystal structure
T1 sequence: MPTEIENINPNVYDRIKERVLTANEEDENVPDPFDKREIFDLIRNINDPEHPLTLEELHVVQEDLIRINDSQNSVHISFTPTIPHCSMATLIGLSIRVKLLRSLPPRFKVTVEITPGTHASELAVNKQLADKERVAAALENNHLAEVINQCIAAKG

[2] = molecular target: T2, Drosophila melanogaster CIAO1-CIAO2B core complex (Drosophila melanogaster, UniProt Q7K1Y4;Q9VTC4); assay: crystal structure
T2 sequence 1: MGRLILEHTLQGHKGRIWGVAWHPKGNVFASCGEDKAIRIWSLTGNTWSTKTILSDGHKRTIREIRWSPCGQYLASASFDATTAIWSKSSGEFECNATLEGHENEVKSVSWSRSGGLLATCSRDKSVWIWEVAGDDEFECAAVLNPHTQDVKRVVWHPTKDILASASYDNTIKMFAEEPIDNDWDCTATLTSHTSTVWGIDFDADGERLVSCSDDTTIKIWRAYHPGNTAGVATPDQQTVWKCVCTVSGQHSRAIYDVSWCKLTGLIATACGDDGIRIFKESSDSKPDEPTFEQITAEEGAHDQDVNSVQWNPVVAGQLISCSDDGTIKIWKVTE
T2 sequence 2: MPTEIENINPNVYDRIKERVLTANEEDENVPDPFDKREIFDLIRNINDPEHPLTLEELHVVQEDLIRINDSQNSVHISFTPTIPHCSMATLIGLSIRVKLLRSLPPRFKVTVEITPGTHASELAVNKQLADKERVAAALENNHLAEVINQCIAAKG

full-length mouse DNA2 = molecular target: B4; assay: cryo-EM structure
[3] = molecular target: T3, human primase small subunit PriS (human, UniProt P49642 1-420); assay: cryo-EM structure
T3 sequence: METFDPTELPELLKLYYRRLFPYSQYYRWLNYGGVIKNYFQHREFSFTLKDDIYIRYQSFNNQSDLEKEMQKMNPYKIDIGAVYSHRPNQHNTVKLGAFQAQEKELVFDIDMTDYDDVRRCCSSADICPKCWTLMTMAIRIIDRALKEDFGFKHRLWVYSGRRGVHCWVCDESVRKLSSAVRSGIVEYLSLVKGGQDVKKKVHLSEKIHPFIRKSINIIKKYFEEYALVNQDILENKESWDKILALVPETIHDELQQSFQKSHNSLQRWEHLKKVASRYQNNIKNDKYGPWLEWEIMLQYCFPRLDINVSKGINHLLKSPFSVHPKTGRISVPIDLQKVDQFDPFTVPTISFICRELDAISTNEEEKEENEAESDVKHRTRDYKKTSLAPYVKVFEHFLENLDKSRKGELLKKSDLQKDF

[4] = molecular target: T4, human MMS19 (subunit of the purified CTC) (human, UniProt Q96T76 1-1030); assay: cryo-EM structure
T4 sequence: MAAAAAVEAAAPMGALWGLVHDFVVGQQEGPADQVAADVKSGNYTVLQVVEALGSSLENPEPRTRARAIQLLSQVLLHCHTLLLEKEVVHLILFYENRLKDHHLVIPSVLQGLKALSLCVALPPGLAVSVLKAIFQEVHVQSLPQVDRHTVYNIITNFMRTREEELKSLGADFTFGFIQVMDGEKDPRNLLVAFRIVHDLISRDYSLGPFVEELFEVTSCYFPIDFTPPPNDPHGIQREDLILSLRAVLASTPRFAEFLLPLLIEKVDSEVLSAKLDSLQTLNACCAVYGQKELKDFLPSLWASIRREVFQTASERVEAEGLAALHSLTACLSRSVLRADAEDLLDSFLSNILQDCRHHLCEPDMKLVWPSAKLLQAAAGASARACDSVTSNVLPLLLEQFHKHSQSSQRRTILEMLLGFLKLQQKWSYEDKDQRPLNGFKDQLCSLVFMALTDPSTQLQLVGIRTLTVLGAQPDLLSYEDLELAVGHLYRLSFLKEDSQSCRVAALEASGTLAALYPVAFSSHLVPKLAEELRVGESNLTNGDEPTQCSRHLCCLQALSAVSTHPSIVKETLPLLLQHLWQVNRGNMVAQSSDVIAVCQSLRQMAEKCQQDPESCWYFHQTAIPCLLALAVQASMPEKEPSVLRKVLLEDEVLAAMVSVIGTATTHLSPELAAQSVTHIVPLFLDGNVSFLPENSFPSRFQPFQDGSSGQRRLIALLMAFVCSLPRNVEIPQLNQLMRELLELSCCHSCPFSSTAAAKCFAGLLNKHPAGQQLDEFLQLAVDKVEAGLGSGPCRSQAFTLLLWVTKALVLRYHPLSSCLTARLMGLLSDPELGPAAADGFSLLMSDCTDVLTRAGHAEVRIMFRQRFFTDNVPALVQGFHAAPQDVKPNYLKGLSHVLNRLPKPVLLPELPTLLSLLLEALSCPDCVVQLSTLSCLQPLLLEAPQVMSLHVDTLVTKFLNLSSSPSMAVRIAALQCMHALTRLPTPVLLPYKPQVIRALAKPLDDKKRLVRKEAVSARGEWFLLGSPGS

[5] = molecular target: full-length human CIA targeting complex (MMS19-CIAO1-CIAO2B) (human, UniProt Q96T76;O76071;Q9Y3D0); assay: cryo-EM structure
Sequence of full-length human CIA targeting complex (MMS19-CIAO1-CIAO2B) (O76071 whole entry, chain 2 of 2): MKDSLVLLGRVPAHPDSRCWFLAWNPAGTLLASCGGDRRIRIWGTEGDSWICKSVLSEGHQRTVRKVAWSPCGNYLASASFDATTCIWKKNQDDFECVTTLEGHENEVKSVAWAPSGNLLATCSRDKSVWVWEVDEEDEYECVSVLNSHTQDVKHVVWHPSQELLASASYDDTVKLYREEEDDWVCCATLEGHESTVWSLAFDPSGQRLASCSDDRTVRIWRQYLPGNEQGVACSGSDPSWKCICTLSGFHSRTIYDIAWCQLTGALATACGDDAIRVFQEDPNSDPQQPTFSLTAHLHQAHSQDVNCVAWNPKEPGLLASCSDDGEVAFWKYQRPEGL
Sequence of full-length human CIA targeting complex (MMS19-CIAO1-CIAO2B) (Q9Y3D0 whole entry, chain 3 of 2): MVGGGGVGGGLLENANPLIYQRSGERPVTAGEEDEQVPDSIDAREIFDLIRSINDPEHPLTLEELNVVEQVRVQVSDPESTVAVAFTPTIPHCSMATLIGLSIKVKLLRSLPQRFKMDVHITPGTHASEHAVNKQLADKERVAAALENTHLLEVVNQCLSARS

binding result [1]: binds
binding result [2]: binds
B1: C-terminal fragment of mouse MMS19 (residues 911-1031) (domain or fragment)
chain: ELPTLLSLLLEALSCPDSVVQLSTLSCLQPLLLEAPQIMSLHVDTLVTKFLNLSSSYSMAVRIAALQCMHALTRLPTSVLLPYKSQVIRALAKPLDDKKRLVRKEAVSARGEWFLLGSPGS

binding result (full-length mouse DNA2): binds
binding result [3]: binds
B2: human CIAO1 (subunit of the purified CTC) (natural protein)
chain: not shown

binding result [4]: binds
B3: human primase large subunit PriL (natural protein)
chain: MEFSGRKWRKLRLAGDQRNASYPHCLQFYLQPPSENISLIEFENLAIDRVKLLKSVENLGVSYVKGTEQYQSKLESELRKLKFSYRENLEDEYEPRRRDHISHFILRLAYCQSEELRRWFIQQEMDLLRFRFSILPKDKIQDFLKDSQLQFEAISDEEKTLREQEIVASSPSLSGLKLGFESIYKIPFADALDLFRGRKVYLEDGFAYVPLKDIVAIILNEFRAKLSKALALTARSLPAVQSDERLQPLLNHLSHSYTGQDYSTQGNVGKISLDQIDLLSTKSFPPCMRQLHKALRENHHLRHGGRMQYGLFLKGIGLTLEQALQFWKQEFIKGKMDPDKFDKGYSYNIRHSFGKEGKRTDYTPFSCLKIILSNPPSQGDYHGCPFRHSDPELLKQKLQSYKISPGGISQILDLVKGTHYQVACQKYFEMIHNVDDCGFSLNHPNQFFCESQRILNGGKDIKKEPIQPETPQPKPSVQKTKDASSALASLNSSLEMDMEGLEDYFSEDS

Binder: B4
binding result [5]: binds
